This series can be described thus: self-splicing fitness, log relative to wild type (ln ratio); higher = more splicing; Tetrahymena group I intron in knt gene, E. coli kanamycin selection, DiMSum; sequences stand for … in CUCUCU…GGAGGGAAAAGUUAUCAGGCAUGCACCUGGUAGCUAGUCUUUAAACCAAUAGAUUGCAUCGGUUUAAAAGGCAAGACCGUCAAAUUGCGGGAAAGGGGUCAACAGCCGUUCAGUACCAAGUCUCAGGGGAAACUUUGAGAUGGCCUUGCAAAGGGUAUGGUAAUAAGCUGACGGACAUGGUCCUAACCACGCAGCCAAGUCCUAAGUCAACAGAUCUUCUGUUGAUAUGGAUGCAGUUCACAGACUAAAUGUCGGUCGGGGAAGAUGUAUUCUUCUCAUAAGAUAUAGUCGGACCUCUCCUUAAUGGGAGCUAGCGGAUGAAGUGAUGCAACACUGGAGCCGCUGGGAACUAAUUUGUAUGCGAAAGUAUAUUGAUUAGUUUUGGAGUACUCGUGGUCG
Put shortly: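 Library with all eight P1ex-region intron nucleotides randomised, intron inside the knt kanamycin-resistance gene on pET-22b(+), in E. coli BL21(DE3). Cells grew overnight at 37°C or 30°C on LB agar with or without 25 μg/mL kanamycin (plus 100 μg/mL carbenicillin, 50 μM IPTG, 0.2% rhamnose), in six replicate transformations. Pooled colonies were amplicon-sequenced on Illumina HiSeq 2500. DiMSum fitness is the error-weighted combination of wild-type-normalised replicate fold changes, kanamycin versus none.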

± gives the uncertainty stated by the source.

Take GUAUAGCAAUAUUACGUUUA: the “self-splicing fitness (ln)” value reads like this: (30 °C) -2.74 ± 0.19; (37 °C) -1.52 ± 0.17.
In the same order, the values of UCUUAGCAAUAUUACGUGAG are -0.751 ± 0.079 and -0.366 ± 0.14.
As for UCUAAGCAAUAUUACGGAGC, the “self-splicing fitness (ln)” value (37 °C) was -1.68 ± 0.37.
For CCCAAGCAAUAUUACGCUUA, the “self-splicing fitness (ln)” value (30 °C) was -3.38 ± 0.22 and the “self-splicing fitness (ln)” value (37 °C) was -2.78 ± 0.21.
The corresponding values for UCCAAGCAAUAUUACGAGGC are -3.67 ± 0.23 and -2.26 ± 0.22.
As for CGACAGCAAUAUUACGCUUU, the “self-splicing fitness (ln)” value by setting is: (30 °C) -5.56 ± 0.41; (37 °C) -2.05 ± 0.15.
The corresponding values for GCGCAGCAAUAUUACGUGAG are -0.213 ± 0.054 and 0.445 ± 0.082.
For the sequence AAAGAGCAAUAUUACGACCA, the “self-splicing fitness (ln)” value (30 °C) was -1.98 ± 0.18.
CAGCAGCAAUAUUACGCGGC: the “self-splicing fitness (ln)” value is, setting by setting: (30 °C) -4.03 ± 0.27; (37 °C) -2.95 ± 0.18.
In the same order, the values of GGCGAGCAAUAUUACGGAAG are -4.21 ± 0.3 and -1.04 ± 0.2.
In the same order, the values of UCUUAGCAAUAUUACGAAUA are -3.59 ± 0.47 and -0.936 ± 0.17.
As to GGCGAGCAAUAUUACGAGAA, the “self-splicing fitness (ln)” value (37 °C) is -2.57 ± 0.41.
For the sequence AAAAAGCAAUAUUACGAUAA, the “self-splicing fitness (ln)” value reads like this: (30 °C) -1.03 ± 0.074; (37 °C) -1.1 ± 0.093.
In the same order, the values of CCCCAGCAAUAUUACGCAGU are -3.25 ± 0.12 and -2.71 ± 0.15.
In the same order, the values of AUCUAGCAAUAUUACGCCAG are -2.77 ± 0.26 and -2.17 ± 0.25.
As to GGAGAGCAAUAUUACGCUCG, the “self-splicing fitness (ln)” value was -2.7 ± 0.24 (30 °C) and -2.45 ± 0.19 (37 °C).
In the same order, the values of GACAAGCAAUAUUACGACGC are 0.305 ± 0.1 and 0.643 ± 0.13.
The corresponding values for UCUGAGCAAUAUUACGGUUG are -3.75 ± 0.23 and -3.15 ± 0.3.
CGGUAGCAAUAUUACGAAGG: the “self-splicing fitness (ln)” value was -0.178 ± 0.15 (30 °C) and 0.565 ± 0.16 (37 °C).
In the same order, the values of CGCCAGCAAUAUUACGCAAU are -4.2 ± 0.21 and -2.63 ± 0.22.
In the same order, the values of CCGAAGCAAUAUUACGAUCC are -3.91 ± 0.46 and -2.46 ± 0.45.
The corresponding values for CCCGAGCAAUAUUACGGCCG are -4.1 ± 0.23 and -3.14 ± 0.32.
CUCGAGCAAUAUUACGCGGU: the “self-splicing fitness (ln)” value runs as follows: (30 °C) -4.23 ± 0.46; (37 °C) -1.97 ± 0.27.
Take UGGCAGCAAUAUUACGACCC: the “self-splicing fitness (ln)” value is 0.0617 ± 0.19 (30 °C) and -0.655 ± 0.18 (37 °C).
In the same order, the values of AUCAAGCAAUAUUACGAAAA are -2.84 ± 0.36 and -2.03 ± 0.27.
In the same order, the values of CCCGAGCAAUAUUACGUGGU are -4.96 ± 0.34 and -2.59 ± 0.19.
In the same order, the values of GCCUAGCAAUAUUACGCGCC are -2.42 ± 0.34 and -1.39 ± 0.31.
On to GUGCAGCAAUAUUACGACUC, for which the “self-splicing fitness (ln)” value was -0.543 ± 0.13 (30 °C) and 0.542 ± 0.19 (37 °C).
Take UCGCAGCAAUAUUACGGUCC: where the note is “37 °C”, the “self-splicing fitness (ln)” value is -1.82 ± 0.24.
Consider AAUAAGCAAUAUUACGAGUG, for which the “self-splicing fitness (ln)” value (30 °C) is -1.05 ± 0.07 and the “self-splicing fitness (ln)” value (37 °C) is -0.56 ± 0.09.
In the same order, the values of GAUCAGCAAUAUUACGUAUA are -0.819 ± 0.091 and -0.975 ± 0.088.
The corresponding values for UUGUAGCAAUAUUACGGCUC are -1.79 ± 0.31 and 0.26 ± 0.24.
Regarding CAUGAGCAAUAUUACGUAUC, the “self-splicing fitness (ln)” value (30 °C) was -3.9 ± 0.32 and the “self-splicing fitness (ln)” value (37 °C) is -3.15 ± 0.25.
In the same order, the values of UGGGAGCAAUAUUACGAUGU are -3.95 ± 0.33 and -2.53 ± 0.3.
The corresponding values for CCUCAGCAAUAUUACGCCCU are -2.29 ± 0.24 and -2.73 ± 0.48.
In the same order, the values of GGGUAGCAAUAUUACGUGUU are -1.37 ± 0.097 and -0.992 ± 0.11.
For AUUCAGCAAUAUUACGUCUC, the “self-splicing fitness (ln)” value runs as follows: (30 °C) -1.97 ± 0.14; (37 °C) -0.374 ± 0.13.
In the case of UAUCAGCAAUAUUACGCCGG, the “self-splicing fitness (ln)” value was -0.251 ± 0.22 (30 °C) and 0.843 ± 0.26 (37 °C).
Regarding UGCAAGCAAUAUUACGUUGG, the “self-splicing fitness (ln)” value (30 °C) was -2.87 ± 0.12 and the “self-splicing fitness (ln)” value (37 °C) was -2.22 ± 0.14.
The corresponding values for UACGAGCAAUAUUACGGACG are -2.32 ± 0.12 and -1.24 ± 0.15.
Regarding CUGAAGCAAUAUUACGCGGA, the “self-splicing fitness (ln)” value (30 °C) is -3.45 ± 0.16 and the “self-splicing fitness (ln)” value (37 °C) is -1.7 ± 0.2.
In the same order, the values of CGUUAGCAAUAUUACGGACA are -0.317 ± 0.08 and 0.172 ± 0.1.
In the same order, the values of CGAUAGCAAUAUUACGGCCA are -1.22 ± 0.12 and -0.957 ± 0.15.
The corresponding values for GUUCAGCAAUAUUACGUCUC are -0.362 ± 0.065 and 0.216 ± 0.083.
Regarding AGAUAGCAAUAUUACGUAGC, the “self-splicing fitness (ln)” value was -2.88 ± 0.22 (30 °C) and -2.16 ± 0.24 (37 °C).
The corresponding values for ACAGAGCAAUAUUACGCUGA are -3.27 ± 0.19 and -1.47 ± 0.16.
Consider GGAGAGCAAUAUUACGUUUG, for which the “self-splicing fitness (ln)” value (37 °C) is -2.01 ± 0.38.
AAGCAGCAAUAUUACGUCUU: the “self-splicing fitness (ln)” value is, setting by setting: (30 °C) -1.66 ± 0.075; (37 °C) -1.05 ± 0.071.
The corresponding values for UGCAAGCAAUAUUACGCGUC are -1.63 ± 0.18 and -2.93 ± 0.26.
In the same order, the values of GGAAAGCAAUAUUACGGACG are -0.879 ± 0.087 and 0.281 ± 0.1.
Take AUCAAGCAAUAUUACGGAUU: the “self-splicing fitness (ln)” value runs as follows: (30 °C) -3.31 ± 0.17; (37 °C) -1.2 ± 0.14.
The corresponding values for CGUCAGCAAUAUUACGGGCA are 0.0754 ± 0.085 and 0.572 ± 0.096.
Take CCGGAGCAAUAUUACGCUCG: the “self-splicing fitness (ln)” value (30 °C) was -3.16 ± 0.28.
Take UUAAAGCAAUAUUACGGAUC: the “self-splicing fitness (ln)” value was -1.78 ± 0.24 (30 °C) and -0.2 ± 0.21 (37 °C).
The corresponding values for UUAAAGCAAUAUUACGGAAU are -3.11 ± 0.17 and -1.73 ± 0.17.
In the same order, the values of UGAUAGCAAUAUUACGCUGU are -2.61 ± 0.27 and -3.08 ± 0.38.
Consider GCCGAGCAAUAUUACGGCUC, for which, where the note is “37 °C”, the “self-splicing fitness (ln)” value was -1.49 ± 0.46.
With CUUUAGCAAUAUUACGCGCC, the “self-splicing fitness (ln)” value (30 °C) was -3.07 ± 0.37 and the “self-splicing fitness (ln)” value (37 °C) was -2.39 ± 0.45.
In the case of UGAGAGCAAUAUUACGUGCU, the “self-splicing fitness (ln)” value (30 °C) was -2.06 ± 0.21.
As for ACGCAGCAAUAUUACGAGAG, the “self-splicing fitness (ln)” value is -3.3 ± 0.11 (30 °C) and -1.78 ± 0.1 (37 °C).
Consider UCUUAGCAAUAUUACGAUUC, for which the “self-splicing fitness (ln)” value (30 °C) is -2.05 ± 0.44.
Turning to AGUUAGCAAUAUUACGCAAG, the “self-splicing fitness (ln)” value by setting is: (30 °C) -2.63 ± 0.12; (37 °C) -1.24 ± 0.13.
In the same order, the values of CCGAAGCAAUAUUACGAUGA are -3.16 ± 0.26 and -2.24 ± 0.19.

The values above are taken from the supplement of paper PMC7877785.
